The values below come from PMC5522267, “Targeting PEPT1: a novel strategy to improve the antitumor efficacy of doxorubicin in human hepatocellular carcinoma therapy” (Oncotarget, 2017).

The target in data set [1] is T1, PEPT1 (Homo sapiens, UniProt P46059).
T1 construct: Doxorubicin-tripeptide conjugate were incubated with HCC cell monolayer at pH 6.0 for 120 min; endogenous in cells; host or cells: Bel-7402, HepG2 (human HCC cells); Caco-2
T1 sequence (P46059 1-708): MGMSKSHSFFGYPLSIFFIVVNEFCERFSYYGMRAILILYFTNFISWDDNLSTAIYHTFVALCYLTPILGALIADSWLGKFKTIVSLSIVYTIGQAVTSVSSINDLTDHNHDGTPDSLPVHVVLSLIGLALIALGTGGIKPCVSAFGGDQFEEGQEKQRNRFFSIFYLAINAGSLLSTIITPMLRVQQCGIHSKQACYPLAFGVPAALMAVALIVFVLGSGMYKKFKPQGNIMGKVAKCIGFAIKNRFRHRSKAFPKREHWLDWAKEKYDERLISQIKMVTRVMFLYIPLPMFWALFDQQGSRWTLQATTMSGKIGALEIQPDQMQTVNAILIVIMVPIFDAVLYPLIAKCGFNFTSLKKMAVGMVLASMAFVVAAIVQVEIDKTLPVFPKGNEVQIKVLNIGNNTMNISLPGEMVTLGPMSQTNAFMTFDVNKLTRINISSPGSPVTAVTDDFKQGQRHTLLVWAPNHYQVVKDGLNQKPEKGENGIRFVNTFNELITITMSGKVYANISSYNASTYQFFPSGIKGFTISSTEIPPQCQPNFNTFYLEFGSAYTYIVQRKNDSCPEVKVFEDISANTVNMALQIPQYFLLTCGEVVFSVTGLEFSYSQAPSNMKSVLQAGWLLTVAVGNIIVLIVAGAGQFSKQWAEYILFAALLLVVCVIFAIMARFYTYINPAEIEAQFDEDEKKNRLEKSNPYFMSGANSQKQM
More on the design: method as in previous research of the authors (Figure 1). To be noted: Bel-7402, HepG2 and Caco-2 cells; ref previous research of the authors (Figure 1); cited from earlier work.

The nature of data set [2]: Blood routine, Bel-7402 HCC mice. The data set is classed as in vivo, nude mice. To be noted: high dose, after treatment.
Data set [3] concerns HepG2. Nature of the data set: Drug concentration in tumor cells by HPLC, HepG2. The data set is classed as cell-based, human. To be noted: incubated 2 hours. The method, then:
(§1) When the density of HCC cells reached to 3 × 10^6/ml, they were trypsinized and centrifuge (4°C, 800rpm, 5min), then discarded the supernatant, dropping medium 3 ml and evenly mixed. Cell suspension was divided into three groups (control group, Doxorubicin-tripeptide conjugate group and Doxorubicin group). The drug concentration was 0.01 mg/ml for cultured 2 hours avoiding light. Then the cells obtained by centrifugation were proceeded by the following steps: washed 3 times with 1 ml normal saline, added 0.5 ml ultra pure water (Millipore), broken by ultrasonic wave, drooped in acetonitrile (Tianjin Concord Technology Co. Ltd, China) 0.5 ml, mixed, ultrasonic oscillation for 10 mins, centrifuge (1200 rpm, 15 min), take the supernatant, filtration with filter membrane, take 20 μl for HPLC analysis (Agilent 1100 HPLC system, USA).
(§2) Chromatographic conditions were as follows: chromatographic column: DIONEX Acclaim 120 C18 (2.1 × 250 mm, 5 μm 120A), Mobile phase: Acetonitrile-0.2%NaH2PO4 aqueous solution (35: 65), Velocity: 0.35 ml/min, column temperature: 30°C, DAD, 254 nm, sample size: 20 μl. […] According to the chromatographic condition, the retention time (tR), peak position time, chromatographic behavior, resolution (R), the minimum detectable concentration and the intracellular drug concentration of these two drugs were detected in turn.

The subject of data set [4] is HepG2. Nature of the data set: cells. In kind it is cell-based, human. The settings on record: HepG2, MTT. The method, then:
(§3) Cells in the growth log phase were seeded in 96-well plate (200 ul/well) with density 8×10^3/well for 24 hours, then the drugs were added. The concentration of Doxorubicin-tripeptide conjugate was 0.005 mg/ml, 0.01 mg/ml, 0.02 mg/ml, 0.04 mg/ml, 0.06 mg/ml in turn, while Doxorubicin followed by 0.005 mg/ml, 0.01 mg/ml, 0.02 mg/ml, 0.04 mg/ml, 0.06 mg/ml with a same dosing volume 100 μl. Each concentration group included five equal wells and was provided with a control well of medium alone as a negative control. Add 20 μl of MTT Reagent ( 5 mg/ml, Sigma) to each well, including controls and continue to be incubated at 37°C for 4 hours. Remove the supernatant, drop plus DMSO (200 μl/well) and measure the OD value in each well, including the blanks, at 490 nm by a Multi-Mode Reader (BioTek, Synergy 2, USA). To calculate the inhibitory rate and the half maximal inhibitory concentration (IC50) according to the formula: Inhibitory rate =(1-( the dosing group OD/the control group OD )) × 100%, IC50 = lg^-1 (Xm-i (ΣP-0.5)) (Xm: the logarithm of maximum concentration, I: the logarithm of maximum dose/ adjacent dose, P: the sum of each group inhibitory rate, Pm: the maximum inhibitory rate, Pn: the minimum inhibitory rate ).

Data set [5] concerns Bel-7402. Nature of the data set: cells. In kind it is cell-based, human. To be noted: Bel-7402, MTT. The method, then:
as §3

Data set [6] deals with Caco2. Nature of the data set: cells. The settings on record: Caco2, MTT. The data set is classed as cell-based, human. How it is done: as §3
Data set [7] is described as follows: Cardiac indexes, HepG2 HCC mice. In kind it is in vivo, nude mice. The settings on record: low dose, after treatment.
The nature of data set [8]: Drug distribution in tissues by Small Animal Imaging, HepG2 HCC mice. The data set is classed as in vivo, nude mice. To be noted: HepG2 HCC mice (low dose group), compared with control group.
Source text: (§5) What's more, the tumor, liver, jejunum and heart tissue of mice were dissected firstly for Small Animal Imaging (KODAK IS in-vivo FX, Kodak), and secondly were placed in the 10% Formaldehyde solution to prepare paraffin section, HE staining for histological examination.
Data set [9] deals with Bel-7402 HCC. The text has this: (§4) An animal model of HCC cells (Bel-7402, HepG2) transplanted into nude mice was established according to the method described in ref. 10.
In data set [10] the test system is HepG2 HCC.
Source text: as §4

Data set [11] concerns Bel-7402. Nature of the data set: Drug concentration in tumor cells by HPLC, Bel-7402. The data set is classed as cell-based, human. The settings on record: incubated 2 hours. How it is done: as §1, §2
Data set [12] is described as follows: Cardiac indexes, Bel-7402 HCC mice. To be noted: high dose, after treatment. The data set is classed as in vivo, nude mice.
The nature of data set [13]: Drug distribution in tissues by Small Animal Imaging, Bel-7402 HCC mice. The data set is classed as in vivo, nude mice. To be noted: Bel-7402 HCC mice (high dose group), compared with Doxorubicin group.
Source text: as §5
Data set [14] can be described thus: Blood routine, HepG2 HCC mice. In kind it is in vivo, nude mice. The settings on record: low dose, after treatment.
For data set [15], the system named is HCC cells. Nature of the data set: MTT on HCC cells (cell line not given). In kind it is cell-based, human. The method, then: as §3
Data set [16] concerns Caco2. Nature of the data set: Drug concentration in tumor cells by HPLC, Caco2. The data set is classed as cell-based, human. To be noted: incubated 2 hours.

Each structure is given as a SMILES string. Marks after values point to notes of the source that are not given here.

On to `Cc1c(CC(=O)NCCCC[C@H](NC(=O)[C@@H](C)N)C(=O)O)c(=O)oc2cc(N)ccc12` [Ala-Lys-AMCA], for which, in [1], the “inhibition of uptake by PEPT1 substrates” value is listed as “competitive inhibition by three known substrates of PEPT1”; the “uptake dependence on time and concentration” value is “time-dependent and concentration-dependent”.
By IC50 is commonly meant the concentration at which inhibition is half-maximal. In the case of `COc1cccc2c1C(=O)c1c(O)c3c(c(O)c1C2=O)C[C@@](O)(C(=O)CO)C[C@@H]3O[C@H]1C[C@H](NC(=O)CNC(=O)CNC(=O)CN)[C@H](O)[C@H](C)O1` [Doxorubicin-tripeptide conjugate], the PLT in data set [2] is recorded as 159.83 ± 74.74^b ×10^9/l; in [14], 135.00 ± 69.55 ×10^9/l. The values for the RBC in [2] and in data set [14] were 7.50 ± 1.77 ×10^12/l and 8.03 ± 0.91 ×10^12/l, respectively. Moreover, the WBC in [2] is 7.05 ± 2.70^b ×10^9/l; in data set [14] it was 8.08 ± 3.40 ×10^9/l. Further, the “drug concentration in tumor cells” value in data set [3] amounted to 2940 ± 20 ng/mL; in [11] it was 3080 ± 30 ng/mL; in data set [16] it was 3090 ± 30 ng/mL. For the same molecule, the “change of mice weight during treatment” value (HCC mice, both dose groups) is given as “weight increase in group B at the early stage of treatment, but a weight decreased significantly at the late stage of treatment”. Moreover, the “survival quality (general condition)” value (HCC mice, both dose groups) was “lethargy, vomiting and loss of appetite administered within 3 days, then gradually restored”. The “damage to heart and bone marrow” value (compared with the Doxorubicin group, cardiac indexes, histopathology, blood routine, bone marrow smears, P < 0.05) is “less damage to the heart and bone marrow”. The IC50 in data set [4] came out at 51.4 µg/mL; in [5], 52.5 µg/mL; in data set [6], 52.9 µg/mL; in data set [15] it was 50 µg/mL. Further, the AST is listed as 637.75 ± 319.83 U/L in [7] and 720.83 ± 303.52^b U/L in data set [12]. The CK in data set [7] is 1070.75 ± 193.32 U/L; in [12] it was 1025.17 ± 182.34^b U/L. The CK-Mb in data set [7] was 570.00 ± 99.07^b U/L; in data set [12], 424.33 ± 189.91^b U/L. The GSH-PX in data set [7] is on record as 682.33 ± 51.09 U; in data set [12], 700.50 ± 79.58^b U. Besides, the LDH in [7] is 6116.75 ± 1136.22 U/L; in [12] it was 6517.00 ± 1956.59 U/L. The MDA in data set [7] is reported as 3.16 ± 0.26 nmol/mg; in data set [12], 2.78 ± 0.22^b nmol/mg. The results for the SOD in [7] and in [12] were 164.15 ± 25.20 U/mg and 171.71 ± 15.51 U/mg, respectively. Moreover, the “drug distribution in tissues” value was “mainly distributed in subcutaneous tumor tissue and less in heart tissue” in data set [8]; “mainly distributed in subcutaneous tumor tissue and liver metastatic tumor tissue and less in heart tissue” in data set [13]. In addition, the deaths during treatment is on record as 1 death during the treatment of 4W+ in [9] (Bel-7402, high dose group, 5W) and “no death” in data set [10] (HepG2, low dose group, 5W). Further, the “Mice weight, Before treatment” value in data set [9] (Bel-7402 HCC mice, baseline) came out at 23.22 ± 1.57 g; in data set [10] (HepG2 HCC mice, baseline) it was 20.88 ± 5.37 g. Besides, the “Mice weight, After treatment” value in data set [9] (Bel-7402 HCC mice, high dose: Doxorubicin 60 mg/m^2, conjugate 300 mg/m^2, tail vein, 5 weeks) is given as 20.13 ± 1.09^a g; in data set [10] (HepG2 HCC mice, low dose: Doxorubicin 40 mg/m^2, conjugate 200 mg/m^2, tail vein, 5 weeks), 19.90 ± 3.71 g.
